Data reported in US20160129077A1, “Use of recombinant ganoderma immunoregulatory protein (rLZ-8) in preparation of drug for treating melanoma” (priority 2013, published 2016).
Like-named read-outs stand apart in the source and are kept apart here. Marks after values point to notes of the source that are not given here.

How the values were obtained:
B16-F10 lung metastases = experiment: B16-F10 melanoma lung metastasis model (tail vein injection) in Kunming mice; format: in vivo; details: for Survival rate when all mice of the negative contrast group were dead: 87th / 95th day after injecting the tumors
Text: DMEM, fetal bovine serum, PBS, trypsin-EDTA, DMSO, Tris-HCl buffer with pH 7.6 for rinsing, 0.05% trypsin, rLZ-8, and DTIC.
After the mice were put to death, lungs of the dead mice were dissected out and the number of black spots on surfaces of the lungs, formed by an aggregation of metastasis cell, was counted, so as to calculate the inhibition rate of the drug against the growth of the lung metastasis as: inhibition rate=(an average metastasis number of the negative contrast group−an average metastasis number of the drug administrated group)/the average metastasis number of the negative contrast group×100%. A time and the number of the dead mouse in each experiment group were recorded in detail, especially during administrating the drug continuously, until the negative contrast group was completely dead; and then, the survival states of the mice in the experiment groups and the contrast groups were analyzed. A survival rate was calculated according to the number of the dead mice in the other groups when all the mice of the negative contrast group were dead, based on a formula that survival rate=(a total number of the mice−the number of the dead mice)/the total number of the mice.

[1] = tested on: IFN-γ secreting expression; experiment: Neutralization activity of anti-rLZ-8 antibody by biological activity method (IFN-γ secreting expression stimulated by rLZ-8); format: cell-based
Experimental: As a fungal recombinant genetic engineering drug, it is crucial to track generation of antibody of the rLZ-8 for a preclinical evaluation. Blood serum of normal monkeys, Macaca fascicularis, after being continuously administrated, was selected for testing antibody of the rLZ-8 by ELISA and for testing a neutralization activity of anti-rLZ-8 antibody by a biological activity method.
On the 9th-11th days of administrating the drug, three monkeys were tested to have low titer (1:5) of the anti-rLZ-8 antibody; after the 28th day of administrating, the titer of the antibody maintained low, within a range of 1:25 to 1:125. No anti-rLZ-8 antibody was tested from the monkeys of the contrast group. […] Therefore, the inhibition effect of the monkey blood serum was not the property of the competitive neutralizing antibody.

[2] = Toxicity test of rLZ-8 on SD rats; format: in vivo; set-up: Weight gains, male / Weight gains, female / BUN (blood urea nitrogen) / CHE (cholinesterase) / CRE (creatinine) / TBA (total bile acid) / UA (uric acid) / ALT (alanine aminotransferase) / AST (aspartate aminotransferase): unit not given here; details: for Weight gains, female: female SD rats; for Weight gains, female / Weight gains, male: 46 days; for Weight gains, male: male SD rats
Experimental: The administration dosages for the rats were calculated based on the administration dosage for the mice; the rats were divided into a contrast group (physiological saline), a low dosage group (15 μl/kg weight), a medium dosage group (30 μl/kg weight) and a high dosage group (60 μl/kg weight). The administration manner was an intraperitoneal injection.
Feeding amount, weight; serology: liver function and kidney function; immunity: thymus index and spleen index; serum complements IgM, IgG, C3 and C4; pathology examination: heart, liver, spleen, lung, kidney, pancreas, thymus, gonad etc.

B16F10 orthotopic tumor = details: for Mortality rate (administration for 28 days) / Mortality rate (administration for 56 days): dead mice/animal number
Experimental: The mice were transplanted with a melanoma cells line B16-F10.
The mice melanoma cells B16-F10 were cultured in the DMEM containing 10% fetal bovine serum, at 37° C. in the CO2 thermostat incubator. 200 μl of B16-F10 cell suspension (containing 1×10^7 cells) was slowly subcutaneously injected into a dorsal-ventral side of the mouse through 1 ml syringe, so as to establish a model of mice transplanted with tumors. […] The rLZ-8 was injected once per day; the DTIC was continuously tail-intravenously injected for 5 days and injected for a second time after 3 weeks. During the experiment, living states of the mice were observed; the mice were weighed once every 7 days; blood samples were taken from tail veins of the mice every 2 weeks; volumes of the tumors, subcutaneously injected into the mice, were measured every 2 days; for each group, the tumors were dissected at an end of the experiment and weighed on the balance, with weights recorded. According to a formula that a tumor growth inhibition rate=(an average weight of the tumors of the physiological saline group−an average weight of the tumors of the drug administrated groups)/the average weight of the tumors of the physiological saline group, the inhibition rate of the rLZ-8 upon the growth of the orthotopic tumor was calculated.

[3] = tested on: human gastric cancer cells (SGC-7901); details: cited from earlier work
[4] = tested on: human lung carcinoma cells (A549); details: cited from earlier work
[5] = medium dosage 246 μg/kg, 56 days
[6] = culture medium with anti-rLZ-8 antibody positive (1:125) monkey blood serum diluted 10 times
[7] = high dosage 60 μl/kg weight i.p.
[8] = low dosage 15 μl/kg weight i.p.
[9] = medium dosage 30 μl/kg weight i.p.
[10] = medium dosage 246 μg/kg, 28 days

B1: rLZ-8: recombinant ganoderma immunoregulatory protein (LZ-8), fungal immunoregulatory protein obtained by gene engineering (protein, UniProt P14945 2-111, looked up)
Immunomodulatory protein Ling …: SDTALIFRLAWDVKKLSFDYTPNWGRGNPNNFIDTVTFPKVLTDKAYTYRVAVSGRNLGVKPSYAVESDGSQKVNFLEYNSGYGIADTNTIQVFVVDPDTNNDFIIAQWN
B16-F10 lung metastases; high dosage 492 μg/kg
  Survival rate when all mice of the negative contrast group were dead: 10%
B16-F10 lung metastases; high dosage 492 μg/kg, 28 days
  Tumor metastases inhibition rate: 71.17±2.43%
B16-F10 lung metastases; high dosage 492 μg/kg, 56 days
  Tumor metastases inhibition rate: 89.78 ± 2.77 %
B16-F10 lung metastases; low dosage 123 μg/kg
  Survival rate when all mice of the negative contrast group were dead: 25%
B16-F10 lung metastases; low dosage 123 μg/kg, 28 days
  Tumor metastases inhibition rate: 62.13±1.88%
B16-F10 lung metastases; low dosage 123 μg/kg, 56 days
  Tumor metastases inhibition rate: 66.18 ± 1.79 %
B16-F10 lung metastases; medium dosage 246 μg/kg
  Survival rate when all mice of the negative contrast group were dead: 30%
B16-F10 lung metastases; [5]
  Tumor metastases inhibition rate: 84.31 ± 3.12 %
[1]; [6]
  Maximum expression value (Emax) of value A: 0.78±0.09
  Slope of the curve: 0.77±0.20
[1]; monkeys, continuous administration
  Generation of neutralizing antibody: does not generate the neutralizing antibody
[1]; with antibody positive monkey blood serum versus without
  Half maximal inhibitory concentration IC50: increased
[2]; SD rats, all dosage groups
  Impact on liver function and kidney function: no obvious adverse impact on the liver function and the kidney function
[2]; compared with the organs of the contrast group
  Pathology examination of tested organs: no obvious morphological change
[2]; [7]
  Weight gains, female: 133.37 ± 15.29
  ALB (albumin): 34.77 ± 1.44
  ALP (alkaline phosphatase): 218.50 ± 69.98
  ALT (alanine aminotransferase): 30.75 ± 2.42
  AST (aspartate aminotransferase): 128.58 ± 18.74
  BUN (blood urea nitrogen): 7.24 ± 0.89
  C3: 0.428 ± 0.082 g/L
  C4: 0.352 ± 0.016 g/L
  CHE (cholinesterase): 456.17 ± 309.59
  CRE (creatinine): 24.22 ± 2.55
  IgG: 0.124 ± 0.081 g/L
  IgM: 0.236 ± 0.076 g/L
  Spleen index (spleen weight/weight × 100): 0.19 ± 0.02
  TBA (total bile acid): 37.30 ± 17.63
  TP (total protein): 63.23 ± 2.88
  Thymus index (thymus weight/weight × 100): 0.17 ± 0.03
  UA (uric acid): 164.50 ± 28.94
  Weight gains, male: 221.92 ± 21.84
[2]; [8]
  Weight gains, female: 140.00 ± 23.48
  ALB (albumin): 37.54 ± 1.62
  ALP (alkaline phosphatase): 243.50 ± 103.54
  ALT (alanine aminotransferase): 35.50 ± 4.93
  AST (aspartate aminotransferase): 175.00 ± 34.96
  BUN (blood urea nitrogen): 7.54 ± 0.47
  C3: 0.449 ± 0.097 g/L
  C4: 0.397 ± 0.021 g/L
  CHE (cholinesterase): 474.17 ± 305.10
  CRE (creatinine): 24.97 ± 1.89
  IgG: 0.146 ± 0.021 g/L
  IgM: 0.220 ± 0.080 g/L
  Spleen index (spleen weight/weight × 100): 0.19 ± 0.03
  TBA (total bile acid): 30.13 ± 16.29
  TP (total protein): 67.58 ± 3.34
  Thymus index (thymus weight/weight × 100): 0.15 ± 0.03
  UA (uric acid): 174.42 ± 46.65
  Weight gains, male: 215.25 ± 17.82
[2]; [9]
  Weight gains, female: 124.08 ± 14.17
  Weight gains, male: 218.67 ± 10.89
  ALB (albumin): 36.57 ± 2.20
  ALP (alkaline phosphatase): 242.83 ± 80.94
  ALT (alanine aminotransferase): 34.42 ± 4.50
  AST (aspartate aminotransferase): 169.08 ± 30.83
  BUN (blood urea nitrogen): 7.36 ± 0.97
  C3: 0.457 ± 0.088 g/L
  C4: 0.412 ± 0.017 g/L
  CHE (cholinesterase): 487.17 ± 303.02
  CRE (creatinine): 24.26 ± 3.55
  IgG: 0.121 ± 0.021 g/L
  IgM: 0.228 ± 0.084 g/L
  Spleen index (spleen weight/weight × 100): 0.18 ± 0.02
  TBA (total bile acid): 38.25 ± 18.15
  TP (total protein): 66.58 ± 4.77
  Thymus index (thymus weight/weight × 100): 0.12 ± 0.02
  UA (uric acid): 186.83 ± 45.67
B16F10 orthotopic tumor; each rLZ-8 dosage group
  Increase of tumor inhibition rate between administration for 28 days and for 56 days: around 15%
B16F10 orthotopic tumor; high dosage 492 μg/kg tail i.v. once per day, 28 days
  Tumor weight: 0.14 ± 0.04 g
B16F10 orthotopic tumor; high dosage 492 μg/kg, 28 days
  Tumor growth inhibition rate: 88.49 ± 0.51 %
  Tumor volume: 0.11 ± 0.03** mm^3
B16F10 orthotopic tumor; high dosage 492 μg/kg, 56 days
  Tumor growth inhibition rate: 95.66±1.77%
  Tumor volume: 0.13 ± 0.09**^## mm^3
  Tumor weight: 0.15 ± 0.07 g
B16F10 orthotopic tumor; high dosage 492 μg/kg
  Mortality rate (administration for 28 days): 0/10
  Mortality rate (administration for 56 days): 0/10
B16F10 orthotopic tumor; low dosage 123 μg/kg tail i.v. once per day, 28 days
  Tumor weight: 0.6 ± 0.21 g
B16F10 orthotopic tumor; low dosage 123 μg/kg, 28 days
  Tumor growth inhibition rate: 51.81 ± 0.41 %
  Tumor volume: 0.5 ± 0.14**^## mm^3
B16F10 orthotopic tumor; low dosage 123 μg/kg, 56 days
  Tumor growth inhibition rate: 76.76 ± 0.53 %
  Tumor volume: 0.65 ± 0.24**^# mm^3
  Tumor weight: 0.79 ± 0.31**^ g
B16F10 orthotopic tumor; low dosage 123 μg/kg
  Mortality rate (administration for 28 days): 0/10
  Mortality rate (administration for 56 days): 0/10
B16F10 orthotopic tumor; medium dosage 246 μg/kg tail i.v. once per day, 28 days
  Tumor weight: 0.43 ± 0.17 g
B16F10 orthotopic tumor; [10]
  Tumor growth inhibition rate: 65.00 ± 0.77 %
  Tumor volume: 0.36 ± 0.14**^## mm^3
B16F10 orthotopic tumor; [5]
  Tumor growth inhibition rate: 80.10 ± 1.01 %
  Tumor volume: 0.56 ± 0.18**^## mm^3
  Tumor weight: 0.68 ± 0.19 g
B16F10 orthotopic tumor; medium dosage 246 μg/kg
  Mortality rate (administration for 28 days): 0/10
  Mortality rate (administration for 56 days): 0/10
B16F10 orthotopic tumor; tumor-bearing mice, tail vein blood, anti-tumor treatment experiment (28/56 days)
  Body leukocyte number: small impact on the body leukocyte number
[3]
  Killing of cells in vitro: effectively kills
[4]
  Killing of cells in vitro: effectively kills
